In patent CN1652821A (dated 2005):
Where a chain is given by its changes, count along the chain named. Values belong to the binder of their own block, whether it stands above or below them.

Columns and labels:
LNCaP细胞上表达的PSMA = target: T1, LNCaP细胞上表达的PSMA (human, UniProt Q04609 1-750); assay: Scatchard analysis, 111In-DOTA-labelled antibody binding to a fixed number of LNCaP cells
T1 construct: whole, on cells; Endogenous PSMA of LNCaP cells; also used for the LNCaP membrane-fraction ELISA; also called PSMA on LNCaP cells; LNCaP细胞膜
T1 sequence (Q04609 whole entry): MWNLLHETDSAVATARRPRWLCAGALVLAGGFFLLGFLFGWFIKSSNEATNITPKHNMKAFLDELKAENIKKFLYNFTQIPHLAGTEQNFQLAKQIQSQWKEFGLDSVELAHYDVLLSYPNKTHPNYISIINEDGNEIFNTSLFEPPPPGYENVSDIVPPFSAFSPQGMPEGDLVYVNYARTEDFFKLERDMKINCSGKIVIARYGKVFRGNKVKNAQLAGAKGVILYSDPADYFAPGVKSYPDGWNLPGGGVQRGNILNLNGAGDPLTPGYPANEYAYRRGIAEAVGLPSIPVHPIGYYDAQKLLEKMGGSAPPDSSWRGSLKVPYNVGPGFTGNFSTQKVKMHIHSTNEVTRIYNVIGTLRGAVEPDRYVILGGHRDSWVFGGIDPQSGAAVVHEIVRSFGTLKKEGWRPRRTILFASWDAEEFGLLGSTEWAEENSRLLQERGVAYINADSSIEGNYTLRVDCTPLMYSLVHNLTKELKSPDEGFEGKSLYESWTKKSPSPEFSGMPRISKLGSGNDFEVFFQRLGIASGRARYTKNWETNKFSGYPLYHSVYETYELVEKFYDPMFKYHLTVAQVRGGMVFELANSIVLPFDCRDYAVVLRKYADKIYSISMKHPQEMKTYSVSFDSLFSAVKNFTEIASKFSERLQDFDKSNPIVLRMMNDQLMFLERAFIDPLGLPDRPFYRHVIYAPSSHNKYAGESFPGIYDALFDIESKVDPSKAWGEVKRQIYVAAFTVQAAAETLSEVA

细菌表达的含有PSMA氨基酸1-173的融合蛋白 = target: T2, 细菌表达的含有PSMA氨基酸1-173的融合蛋白 (human, UniProt Q04609 1-173); assay: solid-phase ELISA on bacterially expressed PSMA fragment fusion proteins
T2 construct: Bacterially expressed fusion protein
T2 sequence (Q04609 1-173): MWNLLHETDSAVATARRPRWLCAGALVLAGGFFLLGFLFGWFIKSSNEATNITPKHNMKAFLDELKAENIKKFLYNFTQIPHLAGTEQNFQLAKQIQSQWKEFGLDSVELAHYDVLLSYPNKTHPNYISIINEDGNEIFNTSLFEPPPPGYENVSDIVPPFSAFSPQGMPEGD

[1] = target: T3, 细菌表达的含有PSMA氨基酸134-437的融合蛋白 (human, UniProt Q04609 134-437); assay: as above
T3 construct: Bacterially expressed fusion protein
T3 sequence (Q04609 134-437): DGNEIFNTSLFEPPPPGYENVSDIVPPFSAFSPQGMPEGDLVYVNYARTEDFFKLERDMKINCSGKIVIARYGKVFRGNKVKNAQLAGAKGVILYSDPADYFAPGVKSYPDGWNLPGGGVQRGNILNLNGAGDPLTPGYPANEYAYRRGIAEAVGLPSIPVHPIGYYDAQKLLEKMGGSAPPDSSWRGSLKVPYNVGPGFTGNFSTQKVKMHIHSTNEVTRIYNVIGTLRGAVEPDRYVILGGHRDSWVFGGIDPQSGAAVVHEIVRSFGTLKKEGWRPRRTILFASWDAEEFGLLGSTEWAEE

[2] = target: T4, 细菌表达的含有PSMA氨基酸438-750的融合蛋白 (human, UniProt Q04609 438-750); assay: as above
T4 construct: range 438-750; Bacterially expressed fusion protein; also called PSMA 438-750 fusion protein
T4 sequence (Q04609 438-750): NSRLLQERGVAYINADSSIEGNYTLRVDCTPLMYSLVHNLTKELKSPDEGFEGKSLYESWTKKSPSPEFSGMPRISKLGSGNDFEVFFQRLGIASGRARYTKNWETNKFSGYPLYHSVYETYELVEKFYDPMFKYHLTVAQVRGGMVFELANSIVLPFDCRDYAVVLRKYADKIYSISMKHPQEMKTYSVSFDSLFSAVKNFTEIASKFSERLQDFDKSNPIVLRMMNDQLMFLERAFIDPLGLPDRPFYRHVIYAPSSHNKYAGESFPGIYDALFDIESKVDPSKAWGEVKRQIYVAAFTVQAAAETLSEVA

B1: DOTA-标记的4A3 (antibody, IgG1, V domains shown)
VH: EVQLVQSGAEVKKPGESLKISCKGSGYSFTSYWIGWARQMPGKGLEWMGIIYPGDSDTRYSPSFQGQVTISADKSISTAYLQWSSLKASDTAMYYCSAANSSHWYFDLWGRGTLVTVSS
VL: EIVLTQSPATLSLSPGERATLSCRASQSVSSYLAWFQQKPGQAPRLLIYDASNRATGIPARFSGSGSGTDFTLTISSLEPEDFAVYYCQQRSNWLMYTFGQGTKLEIK
modifications: DOTA coupled through one carboxyl group to protein amino groups, sites not stated; 111In chelated in the Scatchard study
notes: 4A3 IgG1 kappa conjugated with DOTA; also called DOTA-4A3; 111 In-DOTA-标记抗体 4A3
- Kd (LNCaP细胞上表达的PSMA): 0.5 nM

B2: 人单克隆抗体(HuMAb)4A3 (antibody, V domains shown)
VH: B1 VH
VL: B1 VL
notes: Human IgG1 kappa (γ1,κ) from a hybridoma of HuMAb mouse #17018
- binding result (细菌表达的含有PSMA氨基酸1-173的融合蛋白): no binding
- binding result [1]: no binding
- binding result [2]: no binding

More lines, now with the values ahead:

- binding result (细菌表达的含有PSMA氨基酸1-173的融合蛋白): no binding
- binding result [1]: no binding
- binding result [2]: no binding
B3: 人单克隆抗体(HuMAb)7F12 (antibody, V domains shown)
VH: B1 VH with E1A, Y32F, S97A, A98T, H103F, Y105N
VL: B1 VL with F36Y
notes: as for B2

- Kd (LNCaP细胞上表达的PSMA): 0.5 nM
B4: DOTA-标记的7F12 (antibody, IgG1, V domains shown)
VH: B1 VH with E1A, Y32F, S97A, A98T, H103F, Y105N
VL: B1 VL with F36Y
modifications: DOTA coupled through one carboxyl group to protein amino groups, sites not stated; 111In chelated in the Scatchard study
notes: 7F12 IgG1 kappa conjugated with DOTA; also called DOTA-7F12; 111 In-DOTA-标记抗体 7F12
